Laboratory results as given in patent publication US20120244144A1 (University of Texas, published 2012).

Tests used:
[1] = molecular target: PTx-S1-220, truncated recombinant S1 subunit (residues 1-220) (Bordetella pertussis strain Tohama I), P04977; assay: SPR; value for truncated PTx-S1-220 differs from Table 1; conditions: remark: other sources report otherwise
PTx-S1D (1-220) [2] = molecular target: T1, PTx-S1D (1-220) (Bordetella pertussis, UniProt P04977 35-254); assay: SPR
T1 chain: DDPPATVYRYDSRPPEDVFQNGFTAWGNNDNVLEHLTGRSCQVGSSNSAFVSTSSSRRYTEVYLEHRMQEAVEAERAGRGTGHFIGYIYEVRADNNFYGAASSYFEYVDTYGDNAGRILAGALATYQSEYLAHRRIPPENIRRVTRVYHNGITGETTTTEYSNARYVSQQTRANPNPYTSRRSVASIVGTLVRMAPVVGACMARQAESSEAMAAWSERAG

PTx-S1A (1-220) [3] = molecular target: T2, PTx-S1A (1-220) (Bordetella pertussis, UniProt P04977 36-255, M194I); assay: SPR
T2 sequence: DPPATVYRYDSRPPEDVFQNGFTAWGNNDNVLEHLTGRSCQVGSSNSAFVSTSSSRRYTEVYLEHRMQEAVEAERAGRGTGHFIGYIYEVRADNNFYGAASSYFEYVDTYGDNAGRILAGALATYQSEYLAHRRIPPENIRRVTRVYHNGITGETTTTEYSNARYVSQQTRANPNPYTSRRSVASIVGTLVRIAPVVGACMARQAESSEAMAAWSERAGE

PTx-S1D (1-220) [4] = molecular target: T1, PTx-S1D (1-220); assay: SPR BIAcore 3000, mAb 1B7 immobilised ~1000 RU
PTx-S1 9K/129G (1-220) = molecular target: T3, PTx-S1 9K/129G (1-220) (Bordetella pertussis, UniProt P04977 36-255, R9K; E129G); assay: SPR BIAcore 3000, mAb 1B7 immobilised ~1000 RU
T3 construct: also called R9K, E129G variant
T3 sequence: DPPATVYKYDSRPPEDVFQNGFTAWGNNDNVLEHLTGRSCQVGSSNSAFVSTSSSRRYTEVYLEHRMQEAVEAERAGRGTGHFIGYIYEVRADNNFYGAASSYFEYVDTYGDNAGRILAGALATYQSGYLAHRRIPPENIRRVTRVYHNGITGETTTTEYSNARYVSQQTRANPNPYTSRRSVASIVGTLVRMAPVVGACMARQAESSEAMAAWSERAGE

PTx-S1A (1-220) [5] = molecular target: T2, PTx-S1A (1-220); assay: SPR BIAcore 3000, mAb 1B7 immobilised ~1000 RU
[6] = molecular target: pertussis toxin B-oligomer (Bordetella pertussis), P04978; assay: ELISA repeated with mAb 1B7; conditions: remark: other sources report otherwise

B1: monoclonal antibody 1B7 (antibody)
chain: DIQMTQSPALMSASPGEKVTMTCSASSSVSFMYWYQQKPRSSPKPWIYLTSNLPSGVPARFSGSGSGTSYSLTISSMEAEDAATYYCQQWSSHPPTFGSGTKLEIKRGGGGSGGGGSGGGGSGGGGSEVQLQQSGSELVRPGASVKLSCKASGYKFTSYWMHWVKQRPGQGLEWIGNIFPGSGSTNYDEKFNSKATLTVDTSSNTAYMQLSSLTSEDSAVYYCTRWLSGAYFDYWGQGTTLTVSSASGA
notes: also called mAb 1B7; 1B7 mAb
koff [1]: 0.0014 s⁻¹
fold decrease in off-rate versus WT PTx-S1-220 (PTx-S1D (1-220) [2]): ~2 fold
fold decrease in off-rate versus WT PTx-S1-220 (PTx-S1A (1-220) [3]): ~2 fold
koff (PTx-S1D (1-220) [4]): 0.00095 s⁻¹
koff (PTx-S1 9K/129G (1-220)): 0.0016 s⁻¹
koff (PTx-S1A (1-220) [5]): 0.00071 s⁻¹
EC50-PTx (%) [6]: 30%
